Common to all, as to assay type: biochemical
Assay [1] can be described thus: PLA2 activity assay toward plasmenylcholine. Particulars: for Activity: 100 mM Hepes, 2 mM DTT. How it is done: (§1) The protein concentration was determined by the Bio-Rad protein assay, using bovine serum albumin (BSA) as standard. Protein purity was examined using 12% SDS-PAGE and Coomassie blue staining. LysoPLA activity was measured at 40° C. in the assay buier containing LysoPC, 100 mM Tris-HCl (pH 8.0) and 10 mM LMe. Cold 1-palmitoyl-sn-glycero-3-phosphorylcholine (125 μM, unless indicated otherwise) was mixed with 1-[14 C]palmitoyl-sn-glycero-3-phosphorylcholine (100,000 cpm) in a total volume of 0.5 ml. The assay was initiated by adding an aliquot of enzyme solution to the substrate mixture and incubating for the desired time. The released fatty acid was extracted by the modified Dole method and then quantified by scintillation counting. The PLA2 activity assay was carried out, using various ^14C-labeled phospholipid substrates under various conditions as given in the text. The rat brain iPLA2 was purified as described elsewhere (H. C. Yang et al., manuscript in preparation incorporated herein). Human recombinant cPLA2 was a gift from Drs. J. D. Sharp and R. M. Kramer at Lilly Laboratories. 1-[^14C]Palmitoyl-sn-glycero-3-phosphorylcholine and 1-palmitoyl-2-[1-^14C]palmitoyl-sn-glycerol-3-phosphorylcholine were purchased from Amersham. 1-Palmitoyl-2-[1-^14C]arachidonoyl-sn-glycerol-3-phosphorylcholine was purchased from DuPont-NEN. All unlabeled phospholipids were purchased from Avanti Polar Lipids. Triton X-100 (TX-100) and PIP2 were obtained from CalBiochem.
The sn-2 labeled PlsCho (plasmenylcholine or 1-O— (Z)-1P-alkenyl-2-arachidonoyl-sn-glycero-3-phosphocholine) was synthesized as follows. A total of 4 μmol [1-14C]arachidonic acid (from NEN, with specific activity […]) was diluted 10 times with cold arachidonic acid in 250 μl distilled methylene chloride (Fisher Scientific). To this 0.04 mmol p(N,N-dimethyl)amino pyridine (Aldrich) and 0.08 mmol 1,3-dicyclohexyl carbodiimide (Aldrich) were added to yield the arachidonoyl anhydride upon 1 h of stirring. Lysoplasmenylcholine (0.06 mmol, from Serdary) dissolved in 200 μl methylene chloride and 50 μl pyridine (Fisher Scienticc) was added to the arachidonoyl anhydride solution with 0.03 μmol dimethylaminopyridine and left stirring for 8 h. The reaction progress was monitored by thin layer chromatography (Merck) using a mobile phase of chloroform:methanol:triethyl amine:water (65:30:1.5:3.5), and retardation factors were 0.6 and 0.2 for PlsCho and LysoPlsCho, respectively. The separation of the product was carried out by preparative layer chromatography (Merck) in the above mobile system. The reaction yielded a total of 3.6 mg (7.7 μmol) of radiolabeled PlsCho (specific activity 0.18 μCi/μmol) by quantitative phosphate analysis.
(§2) When we first purified the mouse LysoPLA from P388D1 cells, no other enzymatic activities (PLA1, PLA2, acyltransferase, transacylase and esterase) were found. Therefore, it appears to be a LysoPL-specific LysoPLA. Similar results were obtained for the rat LysoPLA and the relative rates towards different LysoPL substrates were reported [Sugimoto et al., (1996) J. Biol. Chem. 271, 7705-11]. However, a recently sequenced rabbit enzyme that shares high sequence homology (approx. 97%) to the rat/mouse LysoPLA was reported to have both PLA2 and LysoPLA activities [Portilla, et al., […] J. Am. Soc.Nephrol. 9, 1178-86]. The specific activities, however, were only 10 nmol/min/mg for PLA2 activity and 20 nmol/min/mg for LysoPLA activity. The PLA2 activity was also reported to be selective for PlsCho substrate with arachidonic acid at the sn2 position. To determine whether hLysoPLA also expresses PLA2 activity, we have explored its ability to hydrolyze arachidonic acid labeled PlsCho as well as other phospholipid substrates under a variety of conditions.

The nature of assay [2]: PLA2 activity assay toward PAPC. To be noted: 100 mM Hepes, 2 mM DTT. How it is done:
as §1, §2

Assay [3] can be described thus: PLA2 activity assay toward DPPC. Particulars: DPPC/TX-100 mixed micelles (100 μM:400 μM); 100 mM Hepes, pH 7.5, 2 mM DTT, 5 mM EDTA. How it is done:
as §1, §2

B1: Human Recombinant cPLA2: human recombinant cytosolic Ca2+-dependent phospholipase A2, gift from Lilly Laboratories (protein, UniProt P47712 1-749, looked up)
Cytosolic phospholipase A2: MSFIDPYQHIIVEHQYSHKFTVVVLRATKVTKGAFGDMLDTPDPYVELFISTTPDSRKRTRHFNNDINPVWNETFEFILDPNQENVLEITLMDANYVMDETLGTATFTVSSMKVGEKKEVPFIFNQVTEMVLEMSLEVCSCPDLRFSMALCDQEKTFRQQRKEHIRESMKKLLGPKNSEGLHSARDVPVVAILGSGGGFRAMVGFSGVMKALYESGILDCATYVAGLSGSTWYMSTLYSHPDFPEKGPEEINEELMKNVSHNPLLLLTPQKVKRYVESLWKKKSSGQPVTFTDIFGMLIGETLIHNRMNTTLSSLKEKVNTAQCPLPLFTCLHVKPDVSELMFADWVEFSPYEIGMAKYGTFMAPDLFGSKFFMGTVVKKYEENPLHFLMGVWGSAFSILFNRVLGVSGSQSRGSTMEEELENITTKHIVSNDSSDSDDESHEPKGTENEDAGSDYQSDNQASWIHRMIMALVSDSALFNTREGRAGKVHNFMLGLNLNTSYPLSPLSDFATQDSFDDDELDAAVADPDEFERIYEPLDVKSKKIHVVDSGLTFNLPYPLILRPQRGVDLIISFDFSARPSDSSPPFKELLLAEKWAKMNKLPFPKIDPYVFDREGLKECYVFKPKNPDMEKDCPTIIHFVLANINFRKYRAPGVPRETEEEKEIADFDIFDDPESPFSTFNFQYPNQAFKRLHDLMHFNTLNNIDVIKEAMVESIEYRRQNPSRCSVSLSNVEARRFFNKEFLSKPKA
As to B1, the Activity in assay [1] (PisCho/PIP2/TX-100 mixed micelles (100 μM:3 μM:600 μM), pH 7.5, 80 μM Ca2+, 0.1 mg/ml BSA) came out at 13.58 ± 0.05 µmol/min/mg; in assay [2] (PAPC/PIP2/TX-100 mixed micelles (97 μM:3 μM:400 μM), pH 7.5, 80 μM Ca2+, 0.1 mg/ml BSA), 21.81 ± 0.09 µmol/min/mg. Besides, the “activity toward PlsCho relative to activity toward PAPC” value in assay [1] (in the presence of 3 mol % PIP2, same conditions) is on record as “about 60%”.

B2: Rat brain iPLA2: Ca2+-independent phospholipase A2 purified from rat brain (protein, UniProt P97570 1-807, looked up)
85/88 kDa calcium-independent …: MQFFGRLVNTLSSVTNLFSNPFRVKEVSLADYASSERVREEGQLILLQNASNRTWDCVLVSPRNPQSGFRLFQLESEADALVNFQQYSSQLPPFYESSVQVLHVEVLQHLTDLIRNHPSWTVTHLAVELGIRECFHHSRIISCANSTENEEGCTPLHLACRKGDSEILVELVQYCHAQMDVTDNKGETAFHYAVQGDNPQVLQLLGKNASAGLNQVNNQGLTPLHLACQMGKQEMVRVLLLCNARCNIMGPGGFPIHTAMKFSQKGCAEMIISMDSNQIHSKDPRYGASPLHWAKNAEMARMLLKRGCDVDSTSASGNTALHVAVTRNRFDCVMVLLTYGANAGARGEHGNTPLHLAMSKDNMEMVKALIVFGAEVDTPNDFGETPAFIASKISKLITRKALLTLLKTVGADYHFPFIQGVSTEQSSAAGPHPFFSLDRTQPPTISLNNLELQDLMPVSRARKPAFILSSMRDEKRSHDHLLCLDGGGVKGLVIIQLLIAIEKASGVATKDLFDWVAGTSTGGILALAILHSKSMAYMRGVYFRMKDEVFRGSRPYESGPLEEFLKREFGEHTKMTDVKKPKVMLTGTLSDRQPAELHLFRNYDAPEAVREPRCTPNINLKPPTQPADQLVWRAARSSGAAPTYFRPNGRFLDGGLLANNPTLDAMTEIHEYNQDMIRKGQGNKVKKLSIVVSLGTGKSPQVPVTCVDVFRPSNPWELAKTVFGAKELGKMVVDCCTDPDGRAVDRARAWCEMVGIQYFRLNPQLGSDIMLDEVSDAVLVNALWETEVYIYEHREEFQKLVQLLLSP
In the case of B2, the Activity in assay [1] (PisCho/TX-100 mixed micelles (100 μM:600 μM), pH 7.5, 5 mM EDTA) is 0.53 ± 0.03 µmol/min/mg; in assay [3], 5.6 ± 0.2 µmol/min/mg; in assay [2] (PAPC/TX-100 mixed micelles (100 μM:400 μM), pH 7.5, 5 mM EDTA) it was 2.0 ± 0.04 µmol/min/mg. The “fold lower activity toward PlsCho than toward DPPC” value in assay [1] (TX-100 mixed micelles) is recorded as 10 fold. The “fold lower activity toward PlsCho than toward PAPC” value in assay [1] (TX-100 mixed micelles) is reported as 4 fold.

The values are drawn from patent US7294496B1, “Cloned human lysophospholipase” (The Regents of the University of California, priority 2000, dated 2007).
